Laboratory results from patent publication US20210079088A1 (published 2021).

T1: soluble human IL-4Rα (sIL-4Rα; PEPRO TECH, Catalog Number: 200-04R) (human, UniProt P24394 26-232)
T1 construct: Bought protein; also called shIL-4Rα; soluble hIL-4 Rα
T1 sequence: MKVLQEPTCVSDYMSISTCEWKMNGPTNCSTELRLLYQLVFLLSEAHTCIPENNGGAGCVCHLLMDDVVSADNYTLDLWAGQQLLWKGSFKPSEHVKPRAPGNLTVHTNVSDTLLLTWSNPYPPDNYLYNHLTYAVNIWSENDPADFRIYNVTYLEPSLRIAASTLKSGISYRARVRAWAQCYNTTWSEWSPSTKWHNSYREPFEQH


The binders below were run against T1, soluble human IL-4Rα (sIL-4Rα; PEPRO …) (assay: ELISA, coated sIL-4Rα, culture supernatant).
Description: Sample to be tested: For each antibody of the present invention, 10 μl and 2 μl of the culture supernatant of Expi293 cells expressing the antibody after transient transfection (the medium was Expi293 Expression Medium, Invitrogen, Catalog Number: A1435102; suspension culture was performed for 4 days at 100 rpm in a 8% CO2 incubator) were respectively added to 990 μl and 998 μl of PBS to prepare antibody samples to be tested of 1:100 and 1:500 dilutions.
100 μl of 100 μg/ml sIL-4Rα solution was added to 9.90 ml of PBS, mixed up and down, and then an antigen coating buffer of 1.0 μg/ml was obtained. The prepared antigen coating buffer was added to a 96-well ELISA plate (Corning) with a volume of 100 μl per well. The 96-well ELISA plate was incubated overnight in a refrigerator at 4° C. On the next day, the solution therein was discarded, and PBS containing 2% BSA was added to the 96-well ELISA plate row by row with a volume of 300 μl per well. The 96-well ELISA plate was incubated for 2 hours in a refrigerator at 4° C. Then the PBS containing 2% BSA was discarded and the plate was washed 3 times with PBST. Diluted antibodies to be tested were sequentially added to the corresponding wells, while the normal cell culture supernatants, as negative control samples, were added too. Three duplicate wells were made for each sample with a volume of 100 μl per well. The ELISA plate was wrapped with preservative film (or covered) and incubated for 1 h at 10° C. in a constant temperature incubator. Subsequently, the 96-well ELISA plate was taken out, and the solution therein was discarded. After washing with PBST for 3 times, TMB solution (Solarbio, Catalog Number: PR1200) was added to the 96-well ELISA plate row by row with a volume of 100 μl per well. The 96-well ELISA plate was placed at room temperature for 5 minutes, and 2 M H2SO4 solution was added in immediately to terminate the reaction. The 96-well ELISA plate was placed in flexstation 3 (Molecular Devices), the values of OD450 were read, and the data were collected, calculated and analyzed. Results were expressed relative to the affinity of control antibody 1.

OD450/OD450 Control antibody 1 | Binder
0.8 ratio to control antibody 1 | L1007H1000 (antibody, V domains shown) VH: EVQLVQSGGGLVHPGGSLRLSCAGSGFTFSRNAMFWVRQAPGKGLEWVSGIGTGGATNYADSVKGRFTISRDNAKNSLYLQMNSLRAEDMAVYYCARGRYYFDYWGQGTLVTVSS VL: not shown
0.8 ratio to control antibody 1 | L1020H1016 (antibody, V domains shown) VH: EVQLVQSGGGLVHPGGSLRLSCAGSGFTFSRNAMFWVRQAPGKGLEWVSGIGTGGATNYADSVKGRFTISRDNAKNSLYLQMNSLRAEDMAVYYCARGRYYFPWWGQGTLVTVSS VL: EIVLTQSPGTLSLSPGERATLSCRASQSVSSSYLAWYQQKPGQAPRLLIYGASSRATGIPDRFSGSGSGTDFTLTISRLEPEDFAVYYCQQYDHSAGWTFGQGTKVEIK
0.16 ratio to control antibody 1 | L1012H1031 (antibody, V domains shown) VH: EVQLVESGGGLVQPGGSLRLSCAASGFTFSRNAMFWVRQAPGKGLEWVSGIGTGGATSYADSVKGRFTISRDNAKNSLYLQMNSLRAEDTAVYYCARGRYYFDYWGQGTLVTVSS VL: not shown
0.27 ratio to control antibody 1 | L1016H1000 (antibody, V domains shown) VH: EVQLVQSGGGLVHPGGSLRLSCAGSGFTFSRNAMFWVRQAPGKGLEWVSGIGTGGATNYADSVKGRFTISRDNAKNSLYLQMNSLRAEDMAVYYCARGRYYFDYWGQGTLVTVSS VL: EIVLTQSPGTLSLSPGERATLSCRASQSVSSSYLAWYQQKPGQAPRLLIFGASSRATGIPDRFSGSGSGTDFTLTISRLEPEDFAVYYCQQYDHSPPWTFGQGTKVEIK
0.9 ratio to control antibody 1 | L1008H1000 (antibody, V domains shown) VH: EVQLVQSGGGLVHPGGSLRLSCAGSGFTFSRNAMFWVRQAPGKGLEWVSGIGTGGATNYADSVKGRFTISRDNAKNSLYLQMNSLRAEDMAVYYCARGRYYFDYWGQGTLVTVSS VL: not shown
0.24 ratio to control antibody 1 | L1013H1000 (antibody, V domains shown) VH: EVQLVQSGGGLVHPGGSLRLSCAGSGFTFSRNAMFWVRQAPGKGLEWVSGIGTGGATNYADSVKGRFTISRDNAKNSLYLQMNSLRAEDMAVYYCARGRYYFDYWGQGTLVTVSS VL: EIVLTQSPGTLSLSPGERATLSCRASQSVSNSYLAWYQQKPGQAPRLLIFGASSRATGIPDRFSGSGSGTDFTLTISRLEPEDFAVYYCQQYDHSPPWTFGQGTKVEIK
0.11 ratio to control antibody 1 | L1012H1020 (antibody, V domains shown) VH: EVQLVQSGGGLVHPGGSLRLSCAGSGFTFSRNAMFWVRQAPGKGLEWVSGIGTGGATSYADSVKGRFTISRDNAKNSLYLQMNSLRAEDMAVYYCARGRYYFPWWGQGTLVTVSS VL: not shown
1 ratio to control antibody 1 | L1010H1000 (antibody, V domains shown) VH: EVQLVQSGGGLVHPGGSLRLSCAGSGFTFSRNAMFWVRQAPGKGLEWVSGIGTGGATNYADSVKGRFTISRDNAKNSLYLQMNSLRAEDMAVYYCARGRYYFDYWGQGTLVTVSS VL: not shown
2.27 ratio to control antibody 1 | L1020H1000 (antibody, V domains shown) VH: EVQLVQSGGGLVHPGGSLRLSCAGSGFTFSRNAMFWVRQAPGKGLEWVSGIGTGGATNYADSVKGRFTISRDNAKNSLYLQMNSLRAEDMAVYYCARGRYYFDYWGQGTLVTVSS VL: EIVLTQSPGTLSLSPGERATLSCRASQSVSSSYLAWYQQKPGQAPRLLIYGASSRATGIPDRFSGSGSGTDFTLTISRLEPEDFAVYYCQQYDHSAGWTFGQGTKVEIK
0.11 ratio to control antibody 1 | L1012H1029 (antibody, V domains shown) VH: EVQLVESGGGLVQPGGSLRLSCAASGFTFSRNAMFWVRQAPGKGLEWVSGIGTGGATSYADSVKGRFTISRDNAKNSLYLQMNSLRAEDMAVYYCARGRYYFPWWGQGTLVTVSS VL: not shown
0.4 ratio to control antibody 1 | L1020H1007 (antibody, V domains shown) VH: EVQLVQSGGGLVHPGGSLRLSCAGSGFTFSRNAMFWVRQAPGKGLEWVSGIGTGGATSYADSVKGRFTISRDNAKNSLYLQMNSLRAEDMAVYYCARGRYYFDYWGQGTLVTVSS VL: EIVLTQSPGTLSLSPGERATLSCRASQSVSSSYLAWYQQKPGQAPRLLIYGASSRATGIPDRFSGSGSGTDFTLTISRLEPEDFAVYYCQQYDHSAGWTFGQGTKVEIK
0.26 ratio to control antibody 1 | L1020H1020 (antibody, V domains shown) VH: EVQLVQSGGGLVHPGGSLRLSCAGSGFTFSRNAMFWVRQAPGKGLEWVSGIGTGGATSYADSVKGRFTISRDNAKNSLYLQMNSLRAEDMAVYYCARGRYYFPWWGQGTLVTVSS VL: EIVLTQSPGTLSLSPGERATLSCRASQSVSSSYLAWYQQKPGQAPRLLIYGASSRATGIPDRFSGSGSGTDFTLTISRLEPEDFAVYYCQQYDHSAGWTFGQGTKVEIK
0.4 ratio to control antibody 1 | L1012H1007 (antibody, V domains shown) VH: EVQLVQSGGGLVHPGGSLRLSCAGSGFTFSRNAMFWVRQAPGKGLEWVSGIGTGGATSYADSVKGRFTISRDNAKNSLYLQMNSLRAEDMAVYYCARGRYYFDYWGQGTLVTVSS VL: not shown
0.67 ratio to control antibody 1 | L1015H1000 (antibody, V domains shown) VH: EVQLVQSGGGLVHPGGSLRLSCAGSGFTFSRNAMFWVRQAPGKGLEWVSGIGTGGATNYADSVKGRFTISRDNAKNSLYLQMNSLRAEDMAVYYCARGRYYFDYWGQGTLVTVSS VL: EIVLTQSPGTLSLSPGERATLSCRASQSVSSSYLAWYQQKPGQAPRLLIFGASSRAPGIPDRFSGSGSGTDFTLTISRLEPEDFAVYYCQQYDHSPPWTFGQGTKVEIK
0.9 ratio to control antibody 1 | L1011H1000 (antibody, V domains shown) VH: EVQLVQSGGGLVHPGGSLRLSCAGSGFTFSRNAMFWVRQAPGKGLEWVSGIGTGGATNYADSVKGRFTISRDNAKNSLYLQMNSLRAEDMAVYYCARGRYYFDYWGQGTLVTVSS VL: EIVLTQSPGTLSLSPGERATLSCRASQSVSNSYLAWYQQKPGQAPRLLIFGASSRAPGIPDRFSGSGSGTDFTLTISRLEPEDFAVYYCQQYGSSPPWTFGQGTKVEIK
1.79 ratio to control antibody 1 | L1019H1000 (antibody, V domains shown) VH: EVQLVQSGGGLVHPGGSLRLSCAGSGFTFSRNAMFWVRQAPGKGLEWVSGIGTGGATNYADSVKGRFTISRDNAKNSLYLQMNSLRAEDMAVYYCARGRYYFDYWGQGTLVTVSS VL: EIVLTQSPGTLSLSPGERATLSCRASQSVSNSYLAWYQQKPGQAPRLLIFGASSRATGIPDRFSGSGSGTDFTLTISRLEPEDFAVYYCQQYDHSAGWTFGQGTKVEIK
1.22 ratio to control antibody 1 | L1012H1000 (antibody, V domains shown) VH: EVQLVQSGGGLVHPGGSLRLSCAGSGFTFSRNAMFWVRQAPGKGLEWVSGIGTGGATNYADSVKGRFTISRDNAKNSLYLQMNSLRAEDMAVYYCARGRYYFDYWGQGTLVTVSS VL: not shown
0.49 ratio to control antibody 1 | L1017H1000 (antibody, V domains shown) VH: EVQLVQSGGGLVHPGGSLRLSCAGSGFTFSRNAMFWVRQAPGKGLEWVSGIGTGGATNYADSVKGRFTISRDNAKNSLYLQMNSLRAEDMAVYYCARGRYYFDYWGQGTLVTVSS VL: not shown
0.64 ratio to control antibody 1 | L1009H1000 (antibody, V domains shown) VH: EVQLVQSGGGLVHPGGSLRLSCAGSGFTFSRNAMFWVRQAPGKGLEWVSGIGTGGATNYADSVKGRFTISRDNAKNSLYLQMNSLRAEDMAVYYCARGRYYFDYWGQGTLVTVSS VL: not shown
